These results are taken from PMC3135172.

The test deals with GST-tagged BPTF PHD-bromodomain (human). Nature of the test: pull-down.

“H4K16ac and H3K4me3 modified mononucleosome (from UniProt P62805 1-103) (complex)”: the fold enhancement of binding over mononucleosomes with only H3K4me3 lay in the range of 2 to 3 fold.
